Assay results reported in a protein production outcome set (Wang et al. 2014).

Assay: label from the status in PepcDB records
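Further: failed if final PepcDB status was selected cloned or expressed and not failed if soluble or beyond.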

Sequence: MARIHQLDEHLSNMIAAGEVVERPSGIVKELVENSIDAKAKHIEIQILQGGIDCITIIDDGCGMDAQDATLAFERHATSKIQAVDDLWKISTMGFRGEALPSIASVSQVTLRTNDGIDSSEVIIYYGTLKSARPCGTPKGTMLEVRNLFQKTPARFKHLKSPQYEFSLISDVVQKFAISHPNIGFELSHDGRSVFKTKGNGNLREVLMQIYGRDGAKTAIELHGQDLDYTIRGYALQPQFQRATKYYVLLYINGRMIRNYHLQKAVMDAYAPYMPKDRYPIAVINMEMDAQLVDVNVHPSKWEIRLSKEKQLEKLLYQTIKAALMQDMEVPNIQARKENKKEKIEIQELQFTYPRDQEVKKLHTEVNDSFVHYNGKPKQTITEESKVQVDKVEPQEAPVEAEKQESVDKKQELSESQSSDTQAPIKDQVIEEVSTTKQAETLFKDIVPIQEVVMKAEQEPASESINPSLPQLHVIGQFHNSYILAEGEKGLYIIDQHAAQERYHYEMIQKQILSGVKDTQPLLIPITVETTISAVSRIDDLNALLEQVGIHFEVFGNTTLLCRELPIWLKDTKEEAFLQDMIDLWQKDDEISLDKLRKHTIATMACHSSIRFHRSLTMEEMKQVILDLGKCEQPFHCPHGRPTLICYEDKDLIHDFERG
- protein production: failed

Sequence: MLKRCLSPLTLVNQVALIVLLSTAIGLAGMAVSGWLVQGVQGSAHAINKAGSLRMQSYRLLAAVPLSEKDKPLIKEMEQTAFSAELTRAAERDGQLAQLQGLQDYWRNELIPALMRAQNRETVSADVSQFVAGLDQLVSGFDRTTEMRIETVVLVHRVMAVFMALLLVFTIIWLRARLLQPWRQLLAMASAVSHRDFTQRANISGRNEMAMLGTALNNMSAELAESYAVLEQRVQEKTAGLEHKNQILSFLWQANRRLHSRAPLCERLSPVLNGLQNLTLLRDIELRVYDTDDEENHQEFTCQPDMTCDDKGCQLCPRGVLPVGDRGTTLKWRLADSHTQYGILLATLPQGRHLSHDQQQLVDTLVEQLTATLALDRHQERQQQLIVMEERATIARELHDSIAQSLSCMKMQVSCLQMQGDALPESSRELLSQIRNELNASWAQLRELLTTFRLQLTEPGLRPALEASCEEYSAKFGFPVKLDYQLPPRLVPSHQAIHLLQIAREALSNALKHSQASEVVVTVAQNDNQVKLTVQDNGCGVPENAIRSNHYGMIIMRDRAQSLRGDCRVRRRESGGTEVVVTFIPEKTFTDVQGDTHE
- protein production: failed

Sequence: MTMTLSAKDLENISKLAYLNEDSEHSAKLTQEVSAIMDFVDQLKTIDTSQIAPLFHPLALNQRLRPDEVTEAECLAELEAMAPLFEDNLYLVPKVISSDK
- protein production: failed

Sequence: MKLRTQISILLIVFAVLLSGIVFAGFQLNKESVTGRQLDETTQHSERIAAGLDTRLKGLKRTVRLQATNPAIAAHGTPQQHYALKTMVNETMFNGVSVIHRNGTMTGIAAGLDPETRSELIGSDFSDRHYFQRARNGETYISAPVVADSGNYIVTISTPIYRDGAVVGTLNAALHLQDSSIFRMASKTANRDSSVFIRTQSGNQIYNRSAHLSSDPVTANATVNETGWIVQVQTSRNVLAGDLRTVTIYQLGGIGLVLALISGFGSILYTQILRYHRQLVRGFEALQRQEYGQQVAEEATGDWGQIFTAFNELSQTLAEYEEERVKHRNELQQERDRFRRLFQSIPEPAVVVEYTGNKTLIHNVNEAFEETFGYEASNAVGGDINDFIVPDGSLEEAESIDQLSSSGKQVTHEVRREAADGKRDFLLRSTPAVDGEDEVYFGVYIDITDRKQQERELTETNSVLSSVLDNMPVGILIEDADRTITTANKKLLDILDVSLTPSGLIGCEYAEIAETLKTQFADPDQFNETVNKIHSTRDAVFDEELLMADGRILARSYVSYSLPDGTGNIWLYRDITKNRQRERKLRETLEKTQKLIQAESIDEAATIAVEIANQTLSFPLSSVHLERKDGELEPAAITDAFEEGVGDTPVYQRTADNSSIDKLVWDVYTSGETRVLTDTGAEIPETISGMPSSGGIIQPMTNHGVLVTLGDSPNRFDEFDQYLVELLGAILATTLDRINQKQQIESQRDNLDLLNQIVRHDIRNDLQILLGRLDLLAERANDAQSEHVNAALRCAENAVELTQSARELSEVLLQNGTDSKPISLNRVVRQQIEEIRSANTDAEITINGSIPDVMIRANEMFDSVIRNLLKNAIQHNDKQDPEITISAIDQKEYVQLRIADNGPGVRDAQKESIFGKGEKELESSGTGIGLYLVSTLIESYGGDVWVEDNNPRGAVFVIELVKDS
- protein production: failed

Sequence: MAALWAAEAALTPGEVQAELASDLARTTVTTILSRLYDKGVVDRRGVAMVTTPCRTPRGSPPGACIPSSTVTLTGRPSWPASSPSSIRTTNSFCASYWRPTRDDRPLLIPLLLPFVMPLLARRALDRLAPATALWALTAAALVLAGACVTALGALVLTGLLKLPAFAALGELAHPLRTPTGYLVLPAAAIATGLLTIGAWTLAHSALRQTRAFRTARAEADRRPTAGDLCVVDSPHPDAYALPGRPHRIVVTTAMLRSLKPDERDALFAHERAHNQGATTASWSIGSAACRPGRMVSYLGACGARRAGPMRGRRGPRAIPVVCRPVPRSCRGRIVGVSLPSARW
- protein production: failed

Sequence: MIPLSESFESGIPAIWKTIDADGDGYNWMHLTNFTGQSGLCVSSASYIGGVGALTPDNYLITPELKLPTDALVEIIYWVCTQDLTAPSEHYAVYSSSTGNNAADFVNLLYEETLTAKRIQSPELIRGNRTQGVWYQRKVVLPNDTKYVAFRHFNSTDNFWLNLDEVSI
- protein production: failed

Sequence: MLEVHRTHRAKILNYSQVEDSLNRHGWSASKLWNVANYHSRQVWEETREIPGHEELKNELKGHDKYKGLHSQSSQRVLEELAEAFNSWYSSDDERDNPPGYRKQNYYDQQGRRVHEEHPLSTVTWKQNGIRHDTKNNRVRLSKGANHKEHPKAWEYILVEYETRPGVEVENLQQVRAVYDQTKERWELHLVCKEEIETPDAPGTETAGIDLGISNFAAVAYSTEDADLYPGNRLKQDGYYFPKEIANCDDSSGDRATRLHHKWSERRTHFFHSLAKHIVEKCIERSVGRINVGDLEGIREDENAKSKNWGRHGNLDLHGWAFDRFTSILEYKAKVEGIEVMEVSERDTSKTCCVCGREDDSQRVERGLYVCESCDAAFNADVNGAENIRLDIDEESNSESTGQLSGDRSTGWLAQPGVYLYDLSCGFQPQREVVDSKP
- protein production: failed

Sequence: MMKTQAEINKRLDAYRKGTVDSPYRVKVWTSYDNRFYPMEPGCIDVDKSFHAQCADLTIDYILWLTDNEFRIRGNAKDAINPKKNKLPEGWKIVLNRPSTVPRKGWIAVFTDGTYWEYGHIGMVYDGGNTSRFQILEQNWNGWANKKPSLRWDNYYGLTHFIVPPVAKENKAVSSSKQQAPKQKVKKASTKKALPKITKHITGYNMDKRGYNPKGVVLHNDAGGMNYKQYYNNLVNANYDRLARGIAHAYVDRTGIWEAIDESRIAWHVADGTRPGSGNHDFYGIEVNQSLRASDKEFLENEQAVFQFAAEKLKKWGLPANRNTVRLHNEFSQTSCPHRSMVLHTGLDPLYHSITEHARLKLKDYFIKQIRAYMDGKKPTSKVVVSKPGSASTPATRKDANGYRENPHGTLYKEEHATFTANANIITRYVGPFTNMPQAGILKAGQTIIYDEVMKQDGYIWVGYTAYNGKRVYLPVRKWNRETDSVGKLWGVIS
- protein production: failed

Sequence: MYLQCYINEKGEKVYTTKKESPLGLATESAHPARFSPDDKYSKQRVLLKKRFGLLPTQNAPLQY
- protein production: failed

Sequence: MKKAVVVFSGGQDSTTCLVQALKEFDEVHAITFDYGQRHKLEIEVAQKIAKDLGVKAHKVMDVGLLNELAISSLTRDDIPVSHELQENGLPNSFVPGRNILFLTLAGIYAYQIGADTVITGVCETDFSGYPDCRDDFVKSMNTALVKGMDRALTIKTPLMWLNKAETWALADQYNALQLVRENTLTCYNGIIGDGCGDCPSCDLRKAGLDEYLNNKDAVMKSLVQKQESEGL
- protein production: failed

Sequence: MLTLHIGGIGIGEPLWFICNILVSFIFSYKLFNSILHNNNISYIFALIYTFSPAMAVLTYSTSWETVLSYAFSPLILYLLYLTFNNLELKGLSFDLILISIFMYVYYFDTDVIMWEGILVVSMLIYLTISHTNRKNCS
- protein production: failed

Sequence: MSREDELLEKLDECENATAFLQVSNKIINLKLKALLPSVFVQDDLVKEYAVDPLLREDGPLVTTDVVSKLMFAMGKISLQTYADIGLYDQVLEYVVTQPEKIAFTDDVIYDFIKNQAVLSSQQDCFYLESINQLKFSSFESFSQMRYESLIKTVLKLSCEMLIERIEEEINQ
- protein production: not failed

Sequence: MRNYIQGIDHVQVAAPVGCEEEARAFYGETIGMEEIPKPEELKKRGGCWFKCGNQEIHIGVEQNFNPAKRAHPAFYVLKIDEFKQELIKQGIEVIDDHARPDVIRFYVSDPFGNRIEFMENKN
- protein production: not failed

Sequence: MTGVIAGPSVLGAVSSGSIESLAELGVILLLFTIGLEMSAERFGEFRRTALIGGTLQICLTVSVVTILTMVLGLSPGKAVFLGFLISLSSTAVVLKVLQDFHETEAPHGQASLAILIFQDVAAVPMILTVPFLGGVVGDPSSALGTLLTAGAVLPWEPCIGKVLVPRLFDVVAATGSREIFLLTVILVCASVTWLTGEVGLSPALGAFLVGSIVANTEYAHRAQGTILPFQEVFLSFFFVSLGMLLDLRFFLDHIYLIVLAVIGVLMIKVVMNSLVGFVMGYSARVVVLLGLVLAQIGEFSFILSETGLRYGLMDRLTFQAFLSVSLITMAITPFLISLSPRISERIVRADLHPRIKNGRVYRRPSVDLRDHLIIIGMGITGRRLADTCEDHGIPYIGLDVNPEAVRRARDEGLNVYYGDGTHLAVLRHFNVPEAAVMVIAIADYRSTVHAIHEARALNEGMKIIARIRGFENTEMLYTAGADVVVSEKREATRRISDEIFSCYSGVCELEE
- protein production: failed

Sequence: MSEATILVSGATGRTGGAAIDELLKSGKQVRAYVRSNDDRAAAFRKRGVEVAIGDFTGIDDIRAAMEGVTSAYFLHPIAPGIIGAAAYFAQAAKEAGVSAIVNMSQISARRESASHAAQDHWISERVFDWSGVATTHLRPTFFADWLVYPHFAKEIWAKKKIEFPFENGRHAPIATDDQGRVIAHILANPEGHGGKTYTLTGPIELNHTEIAAAMSEVLGAKIEYAPTSIDEFRNKMENVYKFPPFLTQHLVEVAQNYRDGIFSGANDAVEKITGTPALSVQQFIAQNRAVFA
- protein production: failed

Sequence: EQDIVANGGEVLGSETVGDVSLFFLNPVGHIHHWVTDAWGGSAELKFNSSPWFGNQDVAKFAMDAGASYDSQFYGVELKVTF
- protein production: failed

Sequence: MKSYLVGGAVRDALLGQPAGDCDWVVVGADPAHMKSLGFKPVGRDFPVFLHPKTGEEFALARTERKNGHGYRGFIVNADPTVTLEQDLQRRDFTINAIARDQTNGTLIDPYGGVNDLEQRVLRHISPAFAEDPLRVLRAARFMARLAPLGFSIAPETLAMMRQMAANGELNSLIPERIWKELSRSLTYTQPAAFLHTLRTVNALEVVLPELNALYGVPQHADYHPEIDTGLHQELVSDIAAKLAPGDMLIGFAALCHDLGKALTPRATWPHHPMHEQRGMAPTQQLSERLKVPRNYQQLALIACREHLNVHRLSKLHDNTVYELLQRCDAFRRPERIAQLAIVCEADYRGRYGHEDANYPQGQHLCRLHAAALAINARDLNRQDLHGTQIGEALAQARIRAISSAGVYDGGTGTNF
- protein production: failed

Sequence: MLMSEIGQIAAILATAREVAVATHIIPDGDCLGSMLGLTLALRKRGTSVIAINADPVPEMFQYLPGQETIIDPDQVTSMPPLLVMVDCTDMERAGKGFSNWQQRVEKIINIDHHVSNTRFGHLNLVDSRAAATAELIYAVLEQIPATFTPEVATCLYTALATDTGSFQYENCTARTLRLAASLLEKGADMPLIREHLWESKPLNSIRLLAATLPTLTLAYEGRVAWMTVSRAALEANGARPEHAEGLVNYPRSIAGVEVGMLFRELPDGKVKVSLRSKKIVDVNRVAALFGGGGHRRAAGCTLDGDLDTVVARVVAAAGEAL
- protein production: failed
